Experimental data as given in US20250215089A1 (HARBOUR BIOMED SHANGHAI, published 2025).
Substitutions are numbered along the chain they refer to. Numbers in names are those of the source.

B1: PR007276 (bispecific antibody, human IgG1, kappa)
heavy: QVQLVESGGGVVQPGMSLRLSCAASGFDFSSYGMYWVRQAPGKGQEWVASIRYTGTEKHYADSVKGRFTISRDNSKNTLYLEMNSLRVEDTAVYYCAKNRALFGVIPDDSDIRGQGTMVTVSSGGGGSQVQLVQSGAEVKKPGASVKVSCKASGYTFAGYYMYWVRQAPGQGLEWMGWINPDSGAPTYAQKFQGRVTMTRDTSISTAYMELSRLRSDDTAVYYCAREKIYYGSGNYYPSFDYWGQGTLVTVSSASTKGPSVFPLAPSSKSTSGGTAALGCLVKDYFPEPVTVSWNSGALTSGVHTFPAVLQSSGLYSLSSVVTVPSSSLGTQTYICNVNHKPSNTKVDKKVEPKSCDKTHTCPPCPAPEAAGAPSVFLFPPKPKDTLMISRTPEVTCVVVDVSHEDPEVKFNWYVDGVEVHNAKTKPREEQYNSTYRVVSVLTVLHQDWLNGKEYKCKVSNKALPAPIEKTISKAKGQPREPQVYTLPPSREEMTKNQVSLTCLVKGFYPSDIAVEWESNGQPENNYKTTPPVLDSDGSFFLYSKLTVDKSRWQQGNVFSCSVMHEALHNHYTQKSLSLSPGK
light: DIQLTQSPSFLSASVGDRVTITCRASQGISSYLAWYQQKPGKAPKLLIYAASTLQSGVPSRFSGSGSGTEFTLTISSLQPEDFATYYCQQLASYPWTFGQGTKVEIKRTVAAPSVFIFPPSDEQLKSGTASVVCLLNNFYPREAKVQWKVDNALQSGNSQESVTEQDSKDSTYSLSSTLTLSKADYEKHKVYACEVTHQGLSSPVTKSFNRGEC
notes: VH of PR006248 (PD-L1) - GS_5 - heavy chain of CD40 IgG PR006495; human IgG1 L234A/L235A/G237A; also called PD-L1×CD40
B2: PR006919 (bispecific antibody, human IgG1, kappa)
heavy: B1 heavy with L102I
light: B1 light with A92F
notes: VH of PR006246 (PD-L1) - GS_5 - heavy chain of CD40 IgG PR006496; human IgG1 L234A/L235A/G237A; also called PD-L1×CD40
B3: PR007618 (bispecific antibody, human IgG1, kappa)
heavy: QVQLVESGGGVVQPGMSLRLSCAASGFDFSSYGMYWVRQAPGKGQEWVASIRYTGTEKHYADSVKGRFTISRDNSKNTLYLEMNSLRVEDTAVYYCAKNRALFGVIPDDSDIRGQGTMVTVSSGGSQVQLVQSGAEVKKPGASVKVSCKASGYTFAGYYMYWVRQAPGQGLEWMGWINPDSGAPTYAQKFQGRVTMTRDTSISTAYMELSRLRSDDTAVYYCAREKIYYGSGNYYPSFDYWGQGTLVTVSSASTKGPSVFPLAPSSKSTSGGTAALGCLVKDYFPEPVTVSWNSGALTSGVHTFPAVLQSSGLYSLSSVVTVPSSSLGTQTYICNVNHKPSNTKVDKKVEPKSCDKTHTCPPCPAPEAAGAPSVFLFPPKPKDTLMISRTPEVTCVVVDVSHEDPEVKFNWYVDGVEVHNAKTKPREEQYNSTYRVVSVLTVLHQDWLNGKEYKCKVSNKALPAPIEKTISKAKGQPREPQVYTLPPSREEMTKNQVSLTCLVKGFYPSDIAVEWESNGQPENNYKTTPPVLDSDGSFFLYSKLTVDKSRWQQGNVFSCSVMHEALHNHYTQKSLSLSPGK
light: B1 light
notes: VH of PR006248 (PD-L1) - GS_3 - heavy chain of CD40 IgG PR006495; human IgG1 L234A/L235A/G237A; also called PD-L1×CD40
B4: PR007070 (bispecific antibody, human IgG1, kappa)
heavy: B1 heavy with D28T
light: B1 light
notes: VH of PR005878 (PD-L1) - GS_5 - heavy chain of CD40 IgG PR006495; human IgG1 L234A/L235A/G237A; also called PD-L1×CD40
B5: PR007620 (bispecific antibody, human IgG1, kappa)
heavy: B3 heavy
light: B1 light with A92V
notes: VH of PR006248 (PD-L1) - GS_3 - heavy chain of CD40 IgG PR006504; human IgG1 L234A/L235A/G237A; also called PD-L1×CD40
B6: PR007151 (bispecific antibody, human IgG1, kappa)
heavy: B1 heavy with D28T
light: B1 light with A92V
notes: VH of PR005878 (PD-L1) - GS_5 - heavy chain of CD40 IgG PR006504; human IgG1 L234A/L235A/G237A; also called PD-L1×CD40

These binders were tested against T1, human PD-L1 (human, UniProt Q9NZQ7 19-290) (assay: FACS, NCI-H226 cells).
T1 construct: whole, on cells; also called hPD-L1; CD274
Procedure: (§1) Specifically, the cells expressing PD-L1 were digested and resuspended in PBS buffer containing 2% BSA. The cells were adjusted to a cell density of 1×10⁶ cells/mL, respectively. The cells were seeded in a 96-well V-bottom plate (Corning, #3894) at 100 μL/well, and the antibody to be tested at 2×final concentration with 4-fold concentration gradient dilution was then added at 100 μL/well. The cells were incubated at 4° C. for 2 hours in the dark. After the incubation, the cells were rinsed twice by adding pre-chilled PBS containing 2% BSA at 100 μL/well, and centrifuged at 500 g at 4° C. for 5 minutes, and the supernatant was discarded. […] The cells were washed twice by adding pre-chilled PBS containing 2% BSA at 100 µL/well, and centrifuged at 500 g at 4° C. for 5 minutes, and the supernatant was discarded. Finally, the cells were resuspended in pre-chilled PBS buffer containing 2% BSA at 200 μL/well. The fluorescence signal values were read using a BD FACS CANTOII flow cytometer or ACEA NovoCyte flow cytometer, and the data were processed and analyzed using FlowJo v10 software (FlowJo, LLC).

T1 sequence (Q9NZQ7 19-290): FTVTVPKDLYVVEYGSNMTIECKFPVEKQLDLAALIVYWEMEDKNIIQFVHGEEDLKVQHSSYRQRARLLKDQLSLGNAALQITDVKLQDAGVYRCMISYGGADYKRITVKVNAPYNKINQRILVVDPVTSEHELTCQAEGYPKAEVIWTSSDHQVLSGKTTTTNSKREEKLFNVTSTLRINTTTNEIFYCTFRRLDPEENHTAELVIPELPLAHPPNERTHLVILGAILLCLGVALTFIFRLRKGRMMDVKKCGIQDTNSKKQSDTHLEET

Row | Binder | EC50 | Maximum MFI
1 | B1 | 0.569 nM | 927 MFI
2 | B2 | 0.389 nM | 870 MFI
3 | B3 | 0.322 nM | 902 MFI
4 | B4 | 0.313 nM | 862 MFI
5 | B5 | 0.281 nM | 1030 MFI
6 | B6 | 0.215 nM | 928 MFI

These binders were tested against T2, human CD40 (human, UniProt P25942 21-277) (assay: FACS, CHO-K1/hCD40 cells).
T2 construct: whole, on cells; also called hCD40; TNFRSF5
Procedure: (§2) The cells were incubated at 4° C. for 1 hours in the dark. After the incubation, the cells were rinsed twice by adding pre-chilled PBS at 100 μL/well, and centrifuged at 500 g at 4° C. for 5 minutes, and the supernatant was discarded. Then, a fluorescent secondary antibody (goat anti-human IgG (H+L) secondary antibody, Alexa Fluor® 488 conjugate, Invitrogen, #A11013, 1:1000 dilution) was added at 100 μL/well, and the cells were incubated at 4° C. for 30 minutes in the dark. The cells were washed twice with pre-chilled PBS at 200 μL/well, and centrifuged at 500 g at 4° C. for 5 minutes, and the supernatant was discarded. Finally, the cells were resuspended in pre-chilled PBS at 200 μL/well. The fluorescence signal values were read using a BD FACS CANTOII flow cytometer or ACEA NovoCyte flow cytometer, and the data were processed and analyzed using FlowJo v10 software (FlowJo, LLC).

T2 sequence (P25942 21-277): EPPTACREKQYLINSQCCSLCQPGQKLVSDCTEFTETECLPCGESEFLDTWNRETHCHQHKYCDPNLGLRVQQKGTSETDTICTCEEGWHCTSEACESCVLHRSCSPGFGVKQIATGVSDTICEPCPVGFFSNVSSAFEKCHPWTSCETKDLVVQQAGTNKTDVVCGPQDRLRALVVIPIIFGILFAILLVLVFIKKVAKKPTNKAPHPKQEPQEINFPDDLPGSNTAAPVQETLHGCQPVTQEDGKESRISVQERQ

Row | Binder | EC50 | Maximum MFI
7 | B1 | 2.35 nM | 14300 MFI
8 | B2 | 2.53 nM | 18900 MFI
9 | B3 | 2.22 nM | 16800 MFI
10 | B4 | 2.67 nM | 15400 MFI
11 | B5 | 2.2 nM | 15300 MFI
12 | B6 | 2.36 nM | 16000 MFI

What follows are binders tested against T3, cynomolgus monkey CD40 (cynomolgus monkey) (assay: FACS, CHO-K1/cyCD40 cells).
T3 construct: whole, on cells; also called cyCD40
Procedure: as §2

Row | Binder | EC50 | Maximum MFI
13 | B1 | 2.62 nM | 57000 MFI
14 | B2 | 3.37 nM | 76200 MFI
15 | B3 | 3.07 nM | 67900 MFI
16 | B4 | 15.6 nM | 93200 MFI
17 | B5 | 2.48 nM | 68000 MFI
18 | B6 | 3.76 nM | 75400 MFI

Each binder was assayed against T1, human PD-L1 (assay: FACS, CHO-K1/hPD-L1 cells).
Procedure: as §1

Row | Binder | EC50 | Maximum MFI
19 | B1 | 1.18 nM | 19700 MFI
20 | B2 | 0.96 nM | 19600 MFI
21 | B3 | 1.04 nM | 20100 MFI
22 | B4 | 1.15 nM | 20500 MFI
23 | B5 | 1.15 nM | 20300 MFI
24 | B6 | 1.14 nM | 20700 MFI

What follows are binders tested against T4, cynomolgus monkey PD-L1 (cynomolgus monkey) (assay: FACS, CHO-K1/cyPD-L1 cells).
T4 construct: whole, on cells; also called cyPD-L1
Procedure: as §1

Row | Binder | EC50 | Maximum MFI
25 | B1 | 0.656 nM | 4570 MFI
26 | B2 | 0.622 nM | 4540 MFI
27 | B3 | 0.69 nM | 4870 MFI
28 | B4 | 0.779 nM | 4870 MFI
29 | B5 | 0.757 nM | 4840 MFI
30 | B6 | 0.754 nM | 4930 MFI

What follows are binders tested against T2, human CD40 (assay: cell-based or functional assay).

Row | Binder | EC50, HEK293-hCD40-NFκB reporter, + CHO-K1 | EC50, HEK293-hCD40-NFκB reporter, + CHO-K1/hPD-L1 | Maximum (RLU), HEK293-hCD40-NFκB reporter, + CHO-K1 | Maximum (RLU), HEK293-hCD40-NFκB reporter, + CHO-K1/hPD-L1
31 | B1 | 0.22 nM | 0.08 nM | 239000 RLU | 379000 RLU
32 | B2 | 0.144 nM | 0.0106 nM | 24500 RLU | 31400 RLU
33 | B4 | 0.136 nM | 0.0138 nM | 26900 RLU | 31700 RLU
34 | B6 | 0.425 nM | 0.0362 nM | 4000 RLU | 4900 RLU

These binders were tested against T1, human PD-L1 (assay: cell-based or functional assay).

Row | Binder | EC50, Jurkat-NFAT-hPD1 reporter | Maximum (RLU), Jurkat-NFAT-hPD1 reporter
35 | B1 | 0.273 nM | 4060 RLU
36 | B2 | 0.359 nM | 4920 RLU
37 | B3 | 0.12 nM | 2470 RLU
38 | B4 | 0.175 nM | 2830 RLU
39 | B5 | 0.319 nM | 3740 RLU
40 | B6 | 0.35 nM | 4640 RLU

What follows are binders tested against T2, human CD40 (assay: FACS, Raji cells).
Procedure: as §2

Row | Binder | EC50 | Maximum MFI
41 | B1 | 1.45 nM | 7570 MFI
42 | B2 | 1.24 nM | 7360 MFI
43 | B3 | 1.23 nM | 6700 MFI
44 | B4 | 1.36 nM | 6670 MFI
45 | B5 | 1.32 nM | 6710 MFI
46 | B6 | 1.3 nM | 6610 MFI
